Experiments:
troponin complex = troponin complex (UniProt P19429+P63316+P45379); conditions: 3'-(CH2)6-SH thiol; SERS sandwich: 300 mM NaCl, 20 mM Tris-HCl, 0.5 mM beta-mercaptoethanol, 20% (w/v) glycerol, 0.05% Tween 20, pH 8.0 (or with 20% human serum), 35 °C, 6 h, then …; cited from earlier work
[1] = biological target: cardiac troponin I (cTnI) (UniProt P19429 2-210); assay: SERS sandwich on Au nanoplate; AFM; sandwich with reporter N2; detected from 100 aM in buffer, 100 fM in 20% human serum; AFM capture at 10 pM; SERS sandwich: 300 mM NaCl, 20 mM Tris-HCl, 0.5 mM beta-mercaptoethanol, 20% (w/v) glycerol, 0.05% Tween 20, pH 8.0 (or with 20% human serum), 35 °C, 6 h, then

Q: For “CGCATGCCAAACGTTGCCTCATAGTTCCCTCCCCGTGTCC [Probe aptamer]”, which Kd (troponin complex) is on record?
A: 3.37 nM

Q: Which Kd (troponin complex) does the source give for “CGTGCAGTACGCCAACCTTTCTCATGCGCTGCCCCTCTTA [Reporter aptamer]” here?
A: 3.1 nM

Q: Does CGCATGCCAAACGTTGCCTCATAGTTCCCTCCCCGTGTCC (ssDNA, 3'-(CH2)6-SH thiol) [Probe aptamer] bind [1]?
A: binds
